# Patent US20200399330A1, “ANTI-LEUKEMIC, ANTI-HIV, AND SIALIDASE ACTIVITIES OF ROYAL-JELLY PROTEINS” (priority 2018, published 2020)
# Entries after “also recorded” stand apart in the source; their conditions may differ.
# Assays:
# [1] = system: murine myeloid (NFS-60) leukemia cells; assay: Anti-leukemic activity, MTT assay and phase-contrast morphology, NFS-60; assay type: cell-based; settings: NFS-60, 72 h
# Experimental: (§1) Anti-leukemic activity of RJ and its fractions, Both leukemia cells (NFS-60 and Jurkat) were seeded in RPMI containing 10% FBS as 3000 cells/well in 96 well cell culture plate. Then serial concentrations from the safe dose of each of the tested RJ and its fractions was added and incubated for 72 h in a 5% CO2 incubator at 37° C. The cytotoxic effect of RJ and its fractions in comparison with DOX against both leukemia cell lines were investigated using the MTT assay as described above. Then the concentration that inhibits leukemia cell growth by 50% (IG50 value) was determined for the RJ and each of its fractions and used to select the effective fraction (the lowest IG50 value). The morphological changes of untreated and treated leukemia cells were examined using the phase-contrast microscope.
# [2] = system: human T lymphocyte (Jurkat) leukemia cells; assay: Anti-leukemic activity, MTT assay and phase-contrast morphology, Jurkat; assay type: cell-based; settings: 72 h
# Experimental: as §1
# NFS-60 cells [3] = assay: Fluorescence microscope investigation of apoptotic cells (EB/AO double staining), NFS-60; assay type: cell-based, murine; settings: NFS-60, 72 h
# Experimental: (§2) Then leukemia cell apoptosis was investigated by ethidium bromide (EB)/acridine orange (AO) double staining (100 μg/mL for each) and then visualized under the fluorescent phase contrast microscope (Olympus, Japan).
# Jurkat cells [4] = assay: Fluorescence microscope investigation of apoptotic cells (EB/AO double staining), Jurkat; assay type: cell-based, human; settings: 72 h
# Experimental: as §2
# NFS-60 cells [5] = assay: Flow cytometric analysis of apoptosis (annexin V/PI), NFS-60; assay type: cell-based, murine; settings: NFS-60, at IG50, 72 h
# Experimental: (§3) Flow cytometric analysis of apoptosis, RJ, its effective fractions (CPF, PF50, MRJP2, and MRJP2 X1), and DOX at their IG50 was incubated for 72 h with each of the leukemia cell lines. After trypsinization, the untreated and treated cells were incubated with annexin V/propidium iodide (PI) for 15 min. Then cells were fixed and incubated with streptavidin-fluorescein (5 μg/mL) for 15 min. The apoptosis-dependent anti-leukemic effect was determined by quantification of annexin-stained apoptotic cells using the Fluorescein isothiocyanate (FITC) signal detector (FL1) in the flow cytometer (Partec, Germany).
# Jurkat cells [6] = assay: Flow cytometric analysis of apoptosis (annexin V/PI), Jurkat; assay type: cell-based, human; settings: at IG50, 72 h
# Experimental: as §3
# NFS-60 cells [7] = assay: Cell cycle distribution by flow cytometry, NFS-60; assay type: cell-based, murine; settings: NFS-60, at IG50, 72 h
# Experimental: (§4) Briefly, the untreated and treated leukemia cells were incubated with 5 μg/mL RNase A (Sigma, USA) then mixed with 10 μl of 1 mg/mL PI (Sigma, USA) for flow cytometry analysis at 488 nm using Cell Quist and Mod Fit softwares.
# Jurkat cells [8] = assay: Cell cycle distribution by flow cytometry, Jurkat; assay type: cell-based, human; settings: at IG50, 72 h
# Experimental: as §4
# PBMCs = assay: Sialidase activity (release of cellular SA), PBMCs; assay type: cell-based, human; settings: 2 h and 72 h incubation
# Experimental: (§5) The sialidase catalytic activity of the RJ isolated PFs was evaluated by incubating different concentrations (500, 250, 125, 62.5, 31.25) of each of the RJ-PFs (CPF, PF25, PF30, PF40, PF50, PF60, MRJP2 and MRJP2 isoform X1) with PBMCs or HepG2 cells at 37° C. for 2 h and 72 h. Two controls were included, each PF alone without cells and each cell alone without PF. At the end of the incubation period, the released SA concentration was quantified followed the previously published method.
# (§6) Preparation of SA-attached cells, PBMCs were obtained by Ficoll-Hypaque density gradient centrifugation method as described previously. […] Finally, the supernatant was removed and the cells were suspended in 5 ml of RPMI-1640 medium containing 10% FBS and counted using trypan blue stain. […]
# (§7) The SA assay, SA concentration was measured by the alkali-Ehrlich method using 0.2 M borate buffer at pH 8.5. After the incubation period (2 h or 72 h), cell culture was centrifuged at 2000 rpm for 15 min and the SA content was quantified in the supernatant. […] The developed violet color was read at 560 nm. The SA concentration (nmol/mL) was calculated from the standard SA calibration curve and used to calculate the sialidase activity of the RJPF as nmol/ml/min (IU). The specific activity (IU/mg protein) was calculated after determination of the protein content (mg/mL) in the supernatant using the Bradford method.
# HepG2 cells = assay: Sialidase activity (release of cellular SA), HepG2; assay type: cell-based; settings: 2 h and 72 h incubation
# Experimental: as §5, §6, §7
Molecule,IG50 (concentration that inhibits leukemia cell growth by 50%) ([1]; MTT),IG50 (concentration that inhibits leukemia cell growth by 50%) ([2]; MTT),apoptotic cell populations by EB/AO double staining (NFS-60 cells [3]),apoptotic cell populations by EB/AO double staining (Jurkat cells [4]),morphological changes under the phase contrast microscope [1],morphological changes under the phase contrast microscope [2],% apoptotic cells (annexin V/PI) (NFS-60 cells [5]),% apoptotic cells (annexin V/PI) (Jurkat cells [6]),"cell cycle distribution (G0, G1, S, G2/M) (NFS-60 cells [7])","cell cycle distribution (G0, G1, S, G2/M) (Jurkat cells [8])",sialidase activity (released SA) (PBMCs),sialidase activity (released SA) (HepG2 cells)
"COc1cccc2c1C(=O)c1c(O)c3c(c(O)c1C2=O)C[C@@](O)(C(=O)CO)C[C@@H]3O[C@H]1C[C@H](N)[C@H](O)[C@H](C)O1 [DOX, Doxorubicin, reference compound]",significantly more potent than the tested fractions,significantly more potent than the tested fractions,increased the number of the late apoptotic cells,increased the number of the late apoptotic cells,,,,,,,,
"MRJP2: bound protein purified from PF50 by CM-Sephadex ion-exchange chromatography (protein, UniProt O77061 18-452, looked up) Major royal jelly protein 2: AIVRENSPRNLEKSLNVIHEWKYFDYDFGSEERRQAAIQSGEYDHTKNYPFDVDQWRDKTFVTILRYDGVPSTLNVISGKTGKGGRLLKPYPDWSFAEFKDCSKIVSAFKIAIDKFDRLWVLDSGLVNRTVPVCAPKLHVFDLKTSNHLKQIEIPHDIAVNATTGKGGLVSLAVQAIDLANTLVYMADHKGDALIVYQNADDSFHRLTSNTFDYDPRYAKMTIDGESFTLKNGICGMALSPVTNNLYYSPLASHGLYYVNTAPFMKSQFGENNVQYQGSEDILNTQSLAKAVSKNGVLFVGLVGNSAVGCWNEHQSLQRQNLEMVAQNDRTLQMIAGMKIKEELPHFVGSNKPVKDEYMLVLSNRMQKIVNDDFNFDDVNFRILGANVKELIRNTHCVNNNQNDNIQNTNNQNDNNQKNNKKNANNQKNNNQNDN",,,increased the number of the late apoptotic cells,increased the number of the late apoptotic cells,"hallmarks of the apoptosis, which observed obviously","hallmarks of the apoptosis, which observed obviously",inducing apoptosis; also recorded: highest percentage of the apoptotic cell populations,inducing apoptosis; also recorded: highest percentage of the apoptotic cell populations,almost completely blocking the cell cycle G0 phase; also recorded: the most effective fraction with the same or higher potency than DOX,almost completely blocking the cell cycle G0 phase; also recorded: the most effective fraction with the same or higher potency than DOX,proven their sialidase activity,proven their sialidase activity
